The source of these data is publication PMC12292835, “Amylin Receptor 1 Mutagenesis Revealed a Potential Role of Calcitonin Serine 29 in Receptor Interaction” (Biomedicines, 2025).

Residue numbers refer to the chain shown, from its start. Numbers in names are those of the source. Bounds are passed on as bounds.

The labels stand for the following.
B1: amylin receptor 1 extracellular domain, wild type (hRAMP1.24–111-(GSA)3-hCTR.34–141-H6) (receptor)
chain: TTACQEANYGALLRELCLTQFQVDMEAVGETLWCDWGRTIRSYRELADCTWHMAEKLGCFWPNAEVDRFFLAVHGRYFRSCPISGRAVGSAGSAGSAIEPKPFLYVVGRKKMMDAQYKCYDRMQQLPAYQGEGPYCNRTWDGWLCWDDTPAGVLSYQFCPDYFPDFDPSEKVTKYCDEKGVWFKHPENNRTWSNYTMCNAFTPEK
modifications: N-glycosylated (sites not given)
B2: amylin receptor 1 extracellular domain with calcitonin receptor D97E (hRAMP1.24–111-(GSA)3-hCTR.34–141.D97E-H6) (receptor)
chain: B1 chain with D161E
modifications: N-glycosylated (sites not given)
B3: amylin receptor 1 extracellular domain with calcitonin receptor E123A (hRAMP1.24–111-(GSA)3-hCTR.34–141.E123A-H6) (receptor)
chain: B1 chain with E187A
modifications: N-glycosylated (sites not given)
B4: amylin receptor 1 extracellular domain with calcitonin receptor D97A (hRAMP1.24–111-(GSA)3-hCTR.34–141.D97A-H6) (receptor)
chain: B1 chain with D161A
modifications: N-glycosylated (sites not given)
B5: amylin receptor 1 extracellular domain with calcitonin receptor E123D (hRAMP1.24–111-(GSA)3-hCTR.34–141.E123D-H6) (receptor)
chain: B1 chain with E187D
modifications: N-glycosylated (sites not given)
B6: amylin receptor 1 extracellular domain with calcitonin receptor N124D (hRAMP1.24–111-(GSA)3-hCTR.34–141.N124D-H6) (receptor)
chain: B1 chain with N188D
modifications: N-glycosylated (sites not given)
B7: amylin receptor 1 extracellular domain with calcitonin receptor N124A (hRAMP1.24–111-(GSA)3-hCTR.34–141.N124A-H6) (receptor)
chain: B1 chain with N188A
modifications: N-glycosylated (sites not given)

The target in one experiment is T1, FITC-labeled salmon calcitonin (sCT) fragment(22–32) (salmon, fluorescein isothiocyanate (FITC) label, position not stated).
T1 construct: salmon calcitonin, residues 22-32 (11 amino acids); numbers count on: the mature 32-residue hormone; probably FITC at the N-terminus and a C-terminal amide, neither stated for this peptide; also called FITC-sCT(22–32); sCT(22–32); source: synthetic peptide (custom-synthesized, Genscript, HPLC-purified)
The experiment is described as follows: fluorescence polarisation; saturation binding format; 10 nM FITC-labeled peptide probe, purified receptor ECD at rising concentrations; 1 h at room temperature; anisotropy; mean pKD of at least three independent experiments. The note with it: both partners purified. (Fluorescence polarisation rises when a labelled molecule tumbles more slowly, as on binding a larger partner.)
A word on the Kd: it is the equilibrium constant for the complex coming apart. As a reminder, the pKD is the negative decadic logarithm of the KD, by convention in mol/L. In the case of B1, the Kd came out at 81 nM and the pKD amounted to 7.09.

As to B2, the Kd came to 161 nM and the pKD is 6.79.

Take B3: the Kd was 365 nM and the pKD was 6.44.

As to B4, the Kd was 548 nM and the pKD was 6.26.

For B5, the Kd was 53 nM and the pKD was found to be 7.28.

In the case of B6, the Kd turned out to be 52 nM and the pKD was 7.29.

The target of another experiment is T2, FITC-labeled AC413(6–25) with Y25P mutation (fluorescein isothiocyanate (FITC) on the N-terminus).
T2 construct: AC413, an antagonist amylin analog, residues 6-25 (20 amino acids) with Y25P; also called FITC-AC413(6–25) Y25P; AC413(6–25) Y25P; source: synthetic peptide (custom-synthesized, Genscript, HPLC-purified)
The description is as above. Particulars: both partners purified.
B1 yielded a Kd of 57 nM and a pKD of 7.24.

The molecule B2 gave a Kd of 81 nM and a pKD of 7.09.

B7 registered a Kd of 467 nM and a pKD of 6.33.

Take B3: the Kd amounted to 129 nM and the pKD is 6.89.

As to B4, the Kd stood at 62 nM and the pKD came to 7.21.

In turn, B5 had a Kd of 136 nM and a pKD of 6.87.

On to B6, for which the Kd worked out at 822 nM and the pKD was found to be 6.09.

Another experiment concerns the target T1, FITC-labeled salmon calcitonin (sCT) …. The experiment is described as above. The note with it: both partners purified. The source holds these as a separate data set.
On to B7, for which the “fold decrease of affinity against the wild type” value was over 10 fold.
